Measured values from the supplement of paper PMC10567573.

B1: ZNF8 (parent)
chain: RTHTGEKPYTCSVCGKSFSRTTCL
B2: SPATS1 (parent)
chain: GRKKYDIDPRNGIPKLTPGDNPYM

Variants of: B1
Test: protein stability index of a GFP-peptide fusion (GPS, HEK-293T) (PSI 1-6); higher = more stable
Settings: c terminus: a fixed tail appended
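Note: lentivirally expressed fusions sorted by FACS into six bins by GFP to DsRed ratio, PSI derived from sequencing read proportions per bin multiplied by bin number.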

Protein stability index, by site and new letter:
G5: H 2.25 | T 2.4 | A 2.3 | V 2.87 | I 3.05 | C 2.84 | M 2.48 | S 3.15 | R 2.5 | E 3.25 | K 2.78 | D 2.62 | Y 2.15 | L 2.29 | F 2.64 | N 2.66 | P 2.4 | Q 2.36 | W 2.74
K7: I 2.15 | W 2.31 | F 2.5 | D 2.17 | Y 2.36 | V 2.44 | G 3.25 | A 2.35 | R 2.49 | L 2.72 | M 2.29 | E 2.36 | C 2.72 | S 2.47 | N 2.42 | H 2.93 | T 2.49 | Q 2.08 | P 2.96
T4: G 2.44 | P 2.22 | H 2.99 | W 1.83 | R 2.66 | K 3.02 | A 2.1 | E 3.43 | I 2.13 | L 2.18 | C 2.32 | D 2.49 | Q 2.31 | S 2.77 | F 1.69 | V 1.93 | M 2.16 | N 3.12 | Y 2.27
R1: N 2.6 | M 2.61 | T 3.04 | K 2.24 | P 2.64 | E 3.13 | V 3.18 | L 1.94 | A 2.43 | I 2.59 | G 3 | D 2.85 | C 4.33 | Q 2.33 | Y 2.51 | S 2.34 | F 2.22 | H 2.85
Y9: F 2.32 | K 2.08 | C 3.77 | M 2.23 | L 2.39 | H 2.11 | I 2.59 | D 2.78 | N 2.51 | A 2.3 | G 2.5 | P 2.4 | E 2.95
T2: R 2.19 | I 1.86 | Q 2.66 | L 2.1 | Y 2.07 | K 2.76 | D 2.93 | P 2.2 | N 2.49 | E 2.85 | M 2.39 | F 2.69 | A 2.32 | W 2.2 | C 3.48 | V 2.55 | H 2.52 | G 2.52
E6: D 2.9 | Q 2.06 | V 2.04 | I 2.75 | R 1.92 | S 1.92 | K 2.53 | P 2.11 | M 2.19 | G 2.26 | Y 2.11 | T 2.08 | A 2.31 | N 1.96 | F 2.11 | H 2.48 | L 2.1 | W 2.06 | C 2.28
P8: S 2.17 | Y 2.95 | H 2.63 | V 2.59 | T 2.86 | W 2.9 | N 2.93 | L 3.12 | K 2.04 | G 2.9 | C 2.81 | E 2.95 | M 2.62 | I 3.05 | D 2.78 | R 2.46 | F 2.25 | Q 3.05 | A 3.27
H3: V 2.82 | G 2.86 | C 2.77 | N 2.72 | M 2.37 | Q 2.2 | S 2.66 | F 2.08 | L 1.88 | T 2.44 | E 2.72 | I 2.21 | K 2.05 | Y 2.27 | R 2.15 | P 2.46 | D 2.82 | W 1.82 | A 1.86

Variants of: B2
Test: as above
Settings: c terminus: a fixed tail appended

Protein stability index: each site, then its substitutions
M24: I 3.46 | V 4.22 | C 3.73 | F 3.1 | G 3.5 | K 4.03 | E 4.56 | S 4.21 | L 3.62 | A 4.21 | P 3.98 | D 4.4 | T 4.04 | W 3.53 | Y 3.73 | N 4.11 | R 3.59 | H 3.76 | Q 4.02
P18: T 3.85 | E 3.92 | G 2.98 | S 3.55 | R 3.24 | H 3.42 | W 2.73 | A 3.86 | M 3.18 | N 4.09 | I 3.27 | F 1.9 | D 3.82 | V 3.34 | K 3.62 | C 3.38 | L 2.81 | Q 3.86 | Y 2.46
T17: F 2.72 | A 3.58 | N 3.48 | K 3.57 | C 3.13 | M 3.02 | H 3.34 | D 3.32 | W 2.47 | R 2.95 | G 3.48 | Q 4.21 | V 3.2 | I 3.19 | L 3.31 | P 3.23 | Y 2.89 | S 4.08 | E 4.33
G19: Y 2.79 | K 3.31 | I 3.28 | T 3.59 | N 3.76 | Q 3.35 | A 3.32 | R 3.35 | S 3.59 | D 3.83 | M 2.81 | C 3.21 | P 3.73 | V 2.88 | W 2.3 | E 4.69 | L 3.44 | H 3.34 | F 2.63
L16: F 3.11 | Y 3.22 | A 4.09 | W 2.67 | G 4 | V 4 | P 3.67 | K 3.53 | E 4.32 | H 3.75 | M 3.67 | I 3.47 | Q 4.08 | S 3.67 | N 4.24 | T 3.98 | C 3.44 | D 4.11 | R 3.59
P22: M 3.37 | E 3.85 | Q 3.98 | T 4.01 | N 3.64 | G 3.53 | V 3.42 | R 4.22 | H 3.74 | W 2.62 | S 3.54 | C 3.34 | A 4.01 | L 3.31 | K 3.89 | Y 3.44 | D 3.91 | I 3.64 | F 3.02
Y23: V 4.18 | H 3.93 | T 4.6 | K 4.41 | S 3.94 | I 3.72 | M 3.82 | F 3.37 | R 4.34 | Q 4.56 | G 4.04 | C 3.26 | D 4.84 | L 4.48 | P 4.41 | W 3.05 | A 4.3 | E 4.61 | N 4.43
D20: W 2.41 | A 3.58 | T 3.12 | V 3.37 | I 2.18 | L 2.71 | H 3.06 | C 3.47 | E 3.65 | M 2.46 | R 3.74 | P 3.2 | N 3.12 | F 2.33 | G 3.3 | K 3.74 | S 3.79 | Q 3.36 | Y 2.49
N21: E 4.6 | G 3.96 | F 2.78 | H 3.33 | A 3.84 | L 2.88 | W 2.63 | T 3.46 | V 3.14 | R 3.41 | P 3.54 | M 3.32 | K 3.51 | I 3.5 | Q 3.67 | Y 3.06 | C 3.34 | S 3.72 | D 4.23
